Measured values: patent publication US20230263832A1, “TARGETED DRUG DELIVERY TO SITES OF INTRAVASCULAR OCCLUSION” (Children's Medical Center Corporation, priority 2020, published 2023)

System: RBC aggregates in SCD mouse liver
Assay: TNFα-induced vaso-occlusion in SCD mouse liver (LaSC, 3 parameters)
Type: in vivo
Conditions: SS mice, TNFα 1 μg/mouse i.p. 1 h
Method: FIG. 12: Parameters of RBC aggregates were determined to quantitate vaso-occlusion in SCD mouse liver. SCD mice were injected with TNFα (1 μg/mouse; 1 h) to induce inflammatory vaso-occlusion, followed by CO2 euthanasia and PBS perfusion to flush unbound RBCs in the vasculature. The livers were harvested and fixed by PLP fixative, followed by cryosectioning and immunofluorescent staining with antibodies against Ter119 (for RBC marker), Endoglin (for sinusoidal vasculature), S100A8 (for neutrophils), and DAPI (for nuclei). Stained slides with fluorescent dye-labeled secondary antibodies were scanned on laser scan cytometry (LaSC), followed by quantitative imaging analysis (iCys software) to quantitate the # of RBC aggregates that are larger than 100 μm^2, total area of RBC aggregates, the # neutrophil-containing RBC aggregates by iCys software. Arrows indicate the neutrophil-containing RBC aggregate in liver sinusoid.
SCD SS and control AA mice were injected with or without TNFα (1 μg/mouse; 1 h) to induce inflammatory vaso-occlusion, followed by CO2 euthanasia and PBS perfusion to flush unbound RBCs in the vasculature. Immunofluorescent staining of liver cryosections was performed as described in FIG. 12 to produce LaSC images, which were subjected to quantitative imaging analysis of RBC aggregates for 3 parameters in SCD mouse livers (see FIG. 14).
From FIG. 13 LaSC scanning, cytometric events are defined by automatic image segmentation on specific channels by iCys software to quantitate # of RBC aggregate, total area of RBC aggregates, # of neutrophil-containing RBC aggregates by iCys software (Park et al. 2020). […]
(FIG. 15A) Representative images show the increased RBC aggregates upon TNFα injection in SCD mouse liver. (FIG. 15B) This was followed by quantitative imaging analysis (iCys software) to quantitate # of RBC aggregate, total area of RBC aggregates, # of neutrophil-containing RBC aggregates by iCys software. […]

With TNFα the “increase of # of RBC aggregates” value was 51%, the “increase of # of neutrophil-containing RBC aggregates” value was 182% and the “increase of total area of RBC aggregates” value was 59%.
